These results are taken from article doi:10.1101/685867 (bioRxiv, 2020).

The target in the test is T1, S0_2.126 (synthetic construct (de novo design)).
T1 chain: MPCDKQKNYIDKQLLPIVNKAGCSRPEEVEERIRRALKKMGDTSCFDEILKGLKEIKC
Description: SPR. In general terms: SPR reads the build-up and loss of mass on a sensor chip optically.

B1: D25 IgG (antibody, V domains shown)
VH: QVQLVQSGAEVKKPGSSVMVSCQASGGPLRNYIINWLRQAPGQGPEWMGGIIPVLGTVHYAPKFQGRVTITADESTDTAYIHLISLRSEDTAMYYCATETALVVSTTYLPHYFDNWGQGTLVTVSS
VL: DIQMTQSPSSLSAAVGDRVTITCQASQDIVNYLNWYQQKPGKAPKLLIYVASNLETGVPSRFSGSGSGTDFSLTISSLQPEDVATYYCQQYDNLPLTFGGGTKVEIK
As to B1, the Kd was approximately 0.05 nM.

The Kd is the concentration at which binding is half-saturated. The low end stands for higher affinity, the high end for lower affinity.
